Measurements as given in the supplement of paper PMC9170038.

Test system: MS2 coat protein
Assay: apparent KD of MS2 coat protein; designed switch direction (-1 OFF switch, 1 ON switch): -1; higher = weaker reporter binding
Outline: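 The reported apparent KD is a per-design median over clusters, from curve fits of normalised cluster fluorescence. Protein titrations used SNAP-549-labelled MS2 coat protein, doubled from 0.7 or 1.5 nM to 3 µM, in Tris-HCl pH 7.5 buffer with KCl, MgCl2, BSA, DTT, tRNA and Tween-20, with no input, 200 uM small-molecule ligand, or an oligonucleotide input. The RNA switches were transcribed on Illumina chips by stalled E. coli RNA polymerase.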

[1] = Eterna round: R95, input ligand: microRNA oligo, concentration not stated
[2] = input ligand: microRNA oligo, concentration not stated
[3] = Eterna round: R95, input ligand: FMN 200 uM
[4] = Eterna round: R95, input ligand: none

GGAUCGAAUGUGAGGAUAUGCUGGUCCUUGGAUCAGCAGAAGGCACAUGAGGAUCACCCAUGUGAUCAAGAUCC [Eli bmx4 4.77] (Eterna round: R97, puzzle: Brourd's mod of Exclusion 4)
apparent KD of MS2 coat protein (input ligand: FMN 200 uM): 58.3 nM | apparent KD of MS2 coat protein (input ligand: none): 910 nM

GGAUCGAGAGUGAGGAUAUGCUGGUCCUUGGAUCAGCAGAAGGCACAUGAGGAUCACCCAUGUGAUUUCGAUCC [Mat - Exclusion 4 - Eli Mod - D40] (Eterna round: R97, puzzle: Brourd's mod of Exclusion 4)
apparent KD of MS2 coat protein (input ligand: FMN 200 uM): 34.6 nM | apparent KD of MS2 coat protein (input ligand: none): 18.1 nM

GGAUCGAGUGUGAGGAUAUACCACUGGAUACAGUGGUAGAAGGCACAUGAGGAUCACCCAUGUCCUUACGAUCC [Fiskers BMX 4 - 46] (puzzle: Brourd's mod of Exclusion 4)
apparent KD of MS2 coat protein [1]: 66 nM

GGAUCGAGUGUGAGGAUAUGCAGGUCCUUGGAUCUGCAGAAGGCACAUGAGGAUCACCCAUGUGGAAACGGUCC [Mat - Exclusion 4 - JL Mod - D76] (puzzle: Brourd's mod of Exclusion 4)
apparent KD of MS2 coat protein [1]: 58.9 nM

GGAUGCUGAGUAAGGAUAUGGUAGGCUUGCGCAAACCAGAAGGUACAUGAGGAUCACCCAUGUAAGCAUCCAGU [eternacac ex4r4 #4] (Eterna round: R97, puzzle: Brourd's mod of Exclusion 4)
apparent KD of MS2 coat protein (input ligand: FMN 200 uM): 16.3 nM | apparent KD of MS2 coat protein (input ligand: none): 14.5 nM

GGAUGCUGAGUAAGGAUAUGGUAGGCUUGCGCCUACCAGAAGGUACAUGAGGAUCACCCAUGUUAGCAUCCAGU [eternacac ex4r4 #3] (Eterna round: R97, puzzle: Brourd's mod of Exclusion 4)
apparent KD of MS2 coat protein (input ligand: FMN 200 uM): 19.6 nM | apparent KD of MS2 coat protein (input ligand: none): 16.2 nM

GGAUUCUCGCAAGGAUAUCGCUUACAUCCUAAGCGAGAAGGUGCUACCAACUUGAGGAUCACCCAAGUGACUUGGGCCUAAAUA [Mutated MS2 EX1.27] (Eterna round: R96, puzzle: Exclusion NG 1)
apparent KD of MS2 coat protein (input ligand: FMN 200 uM): 112 nM | apparent KD of MS2 coat protein [2]: 34.2 nM | apparent KD of MS2 coat protein (input ligand: none): 62.9 nM

GGCAAAUUUGUAAGGAUAUUGAGCAGCGAAGAGCUCGAGAAGGUACAUGAGGAUCACCCAUGUUUCUCAGACGC [Eternabot (Original) Solution 49] (Eterna round: R97, puzzle: Brourd's mod of Exclusion 4)
apparent KD of MS2 coat protein (input ligand: FMN 200 uM): 43.4 nM | apparent KD of MS2 coat protein (input ligand: none): 17.7 nM

GGCAAUAACGAGGAUAUCCUAUGGGAAACCAUAGGAGAAGGUGUAACAUGAGGAUCACCCAUGUUCCUCAAGCC [Mat - Exclusion 6 - Eli Mod - D67] (puzzle: Exclusion 6)
apparent KD of MS2 coat protein [3]: 43.3 nM | apparent KD of MS2 coat protein [1]: 34.7 nM | apparent KD of MS2 coat protein [4]: 39.8 nM

GGCAAUAACGAGGAUAUCGUAUCGGAAACGAUACGAGAAGGUGUAACAUGAGGAUCACCCAUGUUCCUUAAGCC [Fiskers Ex 6 - 9] (puzzle: Exclusion 6)
apparent KD of MS2 coat protein [1]: 23.5 nM

GGCACACAUGAGGAUCACCCAUGUGAGGAUAUGCUGCGAUCGUCGAUAGACGAUAGCAGUAGAAGGCACAUGCC [Mat - Exclusion 1 - Eli Mod - D7] (Eterna round: R97, puzzle: Exclusion 1)
apparent KD of MS2 coat protein (input ligand: FMN 200 uM): 25.9 nM | apparent KD of MS2 coat protein (input ligand: none): 19.1 nM

GGCAGACAUGAGGAUCACCCAUGUGAGGAUAUGGUGCGAUCGUCGAUAGACGAUAGCACCAGAAGGCACAUGCC [Mat - Exclusion 1 - Eli Mod - D4] (Eterna round: R97, puzzle: Exclusion 1)
apparent KD of MS2 coat protein (input ligand: FMN 200 uM): 159 nM | apparent KD of MS2 coat protein (input ligand: none): 34.5 nM

GGCAUCGGAGGAUAUAUUUAUGGUGAUACCCGAAGCUUUCUACUUGAGGAUCACCCAAGUAGAAGGCCGAUGCC [jl-ex2.4.82 ViennaUCT mod] (Eterna round: R97, puzzle: Exclusion 2)
apparent KD of MS2 coat protein (input ligand: FMN 200 uM): 17.4 nM | apparent KD of MS2 coat protein (input ligand: none): 10.9 nM

GGCAUGCAAGGAUAUACUUGCAGUGAUAUUCGAUAAAGUCUACUUGAGGAUCACCCAAGUAGAAGGUGCAUGCC [Exclusion 2 (Mod6 JL EX2 4.74 Vienna UCT mod of Mamaed)] (Eterna round: R97, puzzle: Exclusion 2)
apparent KD of MS2 coat protein (input ligand: FMN 200 uM): 35 nM | apparent KD of MS2 coat protein (input ligand: none): 25.8 nM

GGCAUGUAAGGAUAUGCCACUGAGUGCUUUGCGCUCAGUAAGCAGAAGGUACAUGAGGAUCACCCAUGUGAUAA [jl-ex4-4.54 ViennaUCT mod] (Eterna round: R97, puzzle: Exclusion 4)
apparent KD of MS2 coat protein (input ligand: FMN 200 uM): 136 nM | apparent KD of MS2 coat protein (input ligand: none): 653 nM

GGCGGACAUGAGGAUCACCCAUGUAAGGAUAUUAGGCGAUCGUCGAUAGACGAUAGCCUGAGAAGGUACGCGCC [Mat - Exclusion 1 - Eli Mod - D14] (Eterna round: R97, puzzle: Exclusion 1)
apparent KD of MS2 coat protein (input ligand: FMN 200 uM): 18.6 nM | apparent KD of MS2 coat protein (input ligand: none): 17.1 nM

GGCGGACAUGAGGAUCACCCAUGUCAGGAUAUUAGGCGAUCGUCGAAAGACGAUAGCCUGAGAAGGGACGCGCC [Eli x1 4.13] (Eterna round: R97, puzzle: Exclusion 1)
apparent KD of MS2 coat protein (input ligand: FMN 200 uM): 20.6 nM | apparent KD of MS2 coat protein (input ligand: none): 17.7 nM

GGCUGCAAUGUAGGAUAUCUGCACGUUUAGUGCAGAGAAGGACAUGAGGAUCACCCAUGUAUAGUAGCUUCGGCUACAGCAGCC [ENG1-D2] (Eterna round: R96, puzzle: Exclusion NG 1)
apparent KD of MS2 coat protein (input ligand: FMN 200 uM): 18.4 nM | apparent KD of MS2 coat protein [2]: 11.4 nM | apparent KD of MS2 coat protein (input ligand: none): 17.2 nM

GGGAAGGGAGGAUAUGAGGAGGAGAACAUGAGGAUCACCCAUGUGAGGCCUCAGGAUCAAUCAGAAGGCCCGAUCC [AK-MS2ROC-r4-exclusion5-15.1] (Eterna round: R97, puzzle: Exclusion 5)
apparent KD of MS2 coat protein (input ligand: FMN 200 uM): 78.1 nM | apparent KD of MS2 coat protein (input ligand: none): 26 nM

GGGCAGUCAGGAUAUACAUGAGGAUCACCCAUGUUGAGAUGUGAAAGGGCGGGAGUAGGUAGAAGGGACGAGAG [JR_Exclu3_Sub041] (puzzle: Exclusion 3)
apparent KD of MS2 coat protein [3]: 27.4 nM | apparent KD of MS2 coat protein [1]: 22.8 nM | apparent KD of MS2 coat protein [4]: 29.9 nM

GGGCGCUUAGGAUAUACAUGAGGAUCACCCAUGUGGCUCUCCACGUUGCAUAACAUUCGUAGAAGGAAGCGCAU [Eternabot (L1) Solution 69] (Eterna round: R97, puzzle: Exclusion 3)
apparent KD of MS2 coat protein (input ligand: FMN 200 uM): 252 nM | apparent KD of MS2 coat protein (input ligand: none): 35.8 nM

GGGUAGUGAGGAUAUCGUUGUUAGGAGGAGUAGGUAGGAGGCGAGAAGGCACAUGAGGAUCACCCAUGUAUGGA [JR_Exclu4_Sub067] (puzzle: Exclusion 4)
apparent KD of MS2 coat protein [1]: 30.7 nM

GGGUGACAUGAGGAUCACCCAUGUCAGGAUAUGAUACUAUGUACUUCGGUACAUAGUAUCAGAAGGGACAUCAU [Ex1-3: 14] (Eterna round: R96, puzzle: Exclusion 1)
apparent KD of MS2 coat protein (input ligand: FMN 200 uM): 112 nM | apparent KD of MS2 coat protein [2]: 253 nM | apparent KD of MS2 coat protein (input ligand: none): 424 nM
